Results reported in paper PMC8262916.

What was measured:
Nsp12T;Nsp7;Nsp8 = Nsp12T;Nsp7;Nsp8 (SARS-CoV-2;SARS-CoV-2;SARS-CoV-2, UniProt P0DTD1;P0DTD1;P0DTD1 4393-5324;3860-3942;3943-4140, ||); test: EMSA
Nsp12A;Nsp7;Nsp8 = Nsp12A;Nsp7;Nsp8 (SARS-CoV-2;SARS-CoV-2;SARS-CoV-2, UniProt P0DTD1;P0DTD1;P0DTD1 4393-5324;3860-3942;3943-4140, ||); test: EMSA; 2 mM Mg2+; 100 nM RNA

UUUUCAUGCUACGCGUAGUUUUCUACGCG (structured_RNA) [4N RNA hairpin scaffold]
binding result (Nsp12T;Nsp7;Nsp8): binds
binding result (Nsp12A;Nsp7;Nsp8): binds
